According to US20220064329A1 (Novo Nordisk, published 2022):
Where a chain is given by its changes, count along the chain named. Names and notes keep the numbering of the source.

T1: recombinant human activated Factor VII (FVIIa) (human, UniProt P08709 61-212; P08709 213-466, ten glutamate residues of the Gla domain may be gamma-carboxylated)
T1 construct: chains tethered by a disulfide bond; also called Factor VIIa; rFVIIa
T1 sequence 1: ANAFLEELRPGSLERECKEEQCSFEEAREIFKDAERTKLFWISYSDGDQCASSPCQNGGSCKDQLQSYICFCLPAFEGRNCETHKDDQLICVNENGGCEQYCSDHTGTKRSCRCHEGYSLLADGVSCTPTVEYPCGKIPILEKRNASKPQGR
T1 sequence 2: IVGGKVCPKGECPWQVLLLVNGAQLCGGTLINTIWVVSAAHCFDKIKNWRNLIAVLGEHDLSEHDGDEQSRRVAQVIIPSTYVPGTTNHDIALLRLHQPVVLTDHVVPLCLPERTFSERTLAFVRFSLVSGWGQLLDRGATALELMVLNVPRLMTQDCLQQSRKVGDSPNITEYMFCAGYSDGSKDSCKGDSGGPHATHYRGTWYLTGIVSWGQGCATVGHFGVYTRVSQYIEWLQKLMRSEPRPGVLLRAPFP

B1: VH SEQ ID NO 522 / VL SEQ ID NO 358 (antibody, IgG4, V domains shown)
VH: QVQLQESGPGLVEPSQTLSLTCTVSGYSISSDSAWSWIRQPPGKGLEWIGYIQYSGSTNYNPSLKSRVTISRDTSKNQFSLKLSSVTAADTAVYYCARSVNYYGNSFAVGPWGQGTLVTVSS
VL: EIVLTQSPATLSLSPGERATLSCRASQGISDYLHWYQQKPGQAPRLLIKYTSQPATGIPARFSGSGSGTDFTLTISSLEPEDFAVYYCQNGHSFPLTFGQGTKLEIK
notes: humanized 11F2; IgG4 S228P/kappa
B2: VH SEQ ID NO 530 / VL SEQ ID NO 358 (antibody, IgG4, V domains shown)
VH: B1 VH with P111Y
VL: B1 VL
notes: as for B1
B3: VH SEQ ID NO 522 / VL SEQ ID NO 374 (antibody, IgG4, V domains shown)
VH: B1 VH
VL: B1 VL with I29L, H34A
notes: as for B1
B4: VH SEQ ID NO 522 / VL SEQ ID NO 422 (antibody, IgG4, V domains shown)
VH: B1 VH
VL: B1 VL with I29V, H34A, T51A, N90Q
notes: as for B1
B5: VH SEQ ID NO 522 / VL SEQ ID NO 430 (antibody, IgG4, V domains shown)
VH: B1 VH
VL: B1 VL with I29V, H34A, T51A, A84G
notes: as for B1
B6: VH SEQ ID NO 530 / VL SEQ ID NO 494 (antibody, IgG4, V domains shown)
VH: B1 VH with P111Y
VL: B1 VL with I29V, T51A, F83V
notes: as for B1
B7: VH SEQ ID NO 530 / VL SEQ ID NO 414 (antibody, IgG4, V domains shown)
VH: B1 VH with P111Y
VL: B1 VL with I29V, H34A, T51A
notes: as for B1
B8: VH SEQ ID NO 530 / VL SEQ ID NO 422 (antibody, IgG4, V domains shown)
VH: B1 VH with P111Y
VL: B1 VL with I29V, H34A, T51A, N90Q
notes: as for B1
B9: VH SEQ ID NO 530 / VL SEQ ID NO 454 (antibody, IgG4, V domains shown)
VH: B1 VH with P111Y
VL: B1 VL with I29V, Q42E, T51A
notes: as for B1
B10: VH SEQ ID NO 530 / VL SEQ ID NO 326 (antibody, IgG4, V domains shown)
VH: B1 VH with P111Y
VL: B1 VL with Q42E, A84G, Q100A, I106L
notes: as for B1
B11: VH SEQ ID NO 530 / VL SEQ ID NO 398 (antibody, IgG4, V domains shown)
VH: B1 VH with P111Y
VL: B1 VL with I29V, H34A, Q42E
notes: as for B1
B12: VH SEQ ID NO 522 / VL SEQ ID NO 462 (antibody, IgG4, V domains shown)
VH: B1 VH
VL: B1 VL with I29V, T51A, Q100A
notes: as for B1
B13: VH SEQ ID NO 522 / VL SEQ ID NO 494 (antibody, IgG4, V domains shown)
VH: B1 VH
VL: B1 VL with I29V, T51A, F83V
notes: as for B1
B14: VH SEQ ID NO 530 / VL SEQ ID NO 350 (antibody, IgG4, V domains shown)
VH: B1 VH with P111Y
VL: B1 VL with Q100A, I106L
notes: as for B1
B15: VH SEQ ID NO 530 / VL SEQ ID NO 446 (antibody, IgG4, V domains shown)
VH: B1 VH with P111Y
VL: B1 VL with I29V, H34A
notes: as for B1
B16: VH SEQ ID NO 522 / VL SEQ ID NO 502 (antibody, IgG4, V domains shown)
VH: B1 VH
VL: B1 VL with I29V
notes: as for B1
B17: VH SEQ ID NO 530 / VL SEQ ID NO 334 (antibody, IgG4, V domains shown)
VH: B1 VH with P111Y
VL: B1 VL with T51A
notes: as for B1
B18: VH SEQ ID NO 530 / VL SEQ ID NO 438 (antibody, IgG4, V domains shown)
VH: B1 VH with P111Y
VL: B1 VL with I29V, H34A, T51A, F83V
notes: as for B1
B19: VH SEQ ID NO 522 / VL SEQ ID NO 454 (antibody, IgG4, V domains shown)
VH: B1 VH
VL: B1 VL with I29V, Q42E, T51A
notes: as for B1
B20: VH SEQ ID NO 522 / VL SEQ ID NO 390 (antibody, IgG4, V domains shown)
VH: B1 VH
VL: B1 VL with I29V, H34A, Q42E, T51A
notes: as for B1
B21: VH SEQ ID NO 530 / VL SEQ ID NO 366 (antibody, IgG4, V domains shown)
VH: B1 VH with P111Y
VL: B1 VL with I29L, H34A, Q42E, T51A
notes: as for B1
B22: VH SEQ ID NO 522 / VL SEQ ID NO 414 (antibody, IgG4, V domains shown)
VH: B1 VH
VL: B1 VL with I29V, H34A, T51A
notes: as for B1
B23: VH SEQ ID NO 522 / VL SEQ ID NO 366 (antibody, IgG4, V domains shown)
VH: B1 VH
VL: B1 VL with I29L, H34A, Q42E, T51A
notes: as for B1
B24: VH SEQ ID NO 530 / VL SEQ ID NO 374 (antibody, IgG4, V domains shown)
VH: B1 VH with P111Y
VL: B1 VL with I29L, H34A
notes: as for B1
B25: VH SEQ ID NO 522 / VL SEQ ID NO 478 (antibody, IgG4, V domains shown)
VH: B1 VH
VL: B1 VL with I29V, T51A, N90Q
notes: as for B1
B26: VH SEQ ID NO 530 / VL SEQ ID NO 310 (antibody, IgG4, V domains shown)
VH: B1 VH with P111Y
VL: B1 VL with H34A, T51A
notes: as for B1
B27: VH SEQ ID NO 530 / VL SEQ ID NO 390 (antibody, IgG4, V domains shown)
VH: B1 VH with P111Y
VL: B1 VL with I29V, H34A, Q42E, T51A
notes: as for B1
B28: VH SEQ ID NO 522 / VL SEQ ID NO 446 (antibody, IgG4, V domains shown)
VH: B1 VH
VL: B1 VL with I29V, H34A
notes: as for B1
B29: VH SEQ ID NO 530 / VL SEQ ID NO 470 (antibody, IgG4, V domains shown)
VH: B1 VH with P111Y
VL: B1 VL with I29V, T51A
notes: as for B1
B30: VH SEQ ID NO 522 / VL SEQ ID NO 382 (antibody, IgG4, V domains shown)
VH: B1 VH
VL: B1 VL with I29L, Q42E, T51A
notes: as for B1
B31: VH SEQ ID NO 530 / VL SEQ ID NO 318 (antibody, IgG4, V domains shown)
VH: B1 VH with P111Y
VL: B1 VL with Q42E
notes: as for B1
B32: VH SEQ ID NO 530 / VL SEQ ID NO 478 (antibody, IgG4, V domains shown)
VH: B1 VH with P111Y
VL: B1 VL with I29V, T51A, N90Q
notes: as for B1
B33: VH SEQ ID NO 522 / VL SEQ ID NO 406 (antibody, IgG4, V domains shown)
VH: B1 VH
VL: B1 VL with I29V, H34A, T51A, Q100A
notes: as for B1
B34: VH SEQ ID NO 530 / VL SEQ ID NO 462 (antibody, IgG4, V domains shown)
VH: B1 VH with P111Y
VL: B1 VL with I29V, T51A, Q100A
notes: as for B1
B35: VH SEQ ID NO 530 / VL SEQ ID NO 342 (antibody, IgG4, V domains shown)
VH: B1 VH with P111Y
VL: B1 VL with T69R, Q100A, I106L
notes: as for B1
B36: VH SEQ ID NO 530 / VL SEQ ID NO 486 (antibody, IgG4, V domains shown)
VH: B1 VH with P111Y
VL: B1 VL with I29V, T51A, A84G
notes: as for B1
B37: VH SEQ ID NO 530 / VL SEQ ID NO 382 (antibody, IgG4, V domains shown)
VH: B1 VH with P111Y
VL: B1 VL with I29L, Q42E, T51A
notes: as for B1
B38: VH SEQ ID NO 530 / VL SEQ ID NO 430 (antibody, IgG4, V domains shown)
VH: B1 VH with P111Y
VL: B1 VL with I29V, H34A, T51A, A84G
notes: as for B1
B39: VH SEQ ID NO 522 / VL SEQ ID NO 470 (antibody, IgG4, V domains shown)
VH: B1 VH
VL: B1 VL with I29V, T51A
notes: as for B1
B40: VH SEQ ID NO 522 / VL SEQ ID NO 398 (antibody, IgG4, V domains shown)
VH: B1 VH
VL: B1 VL with I29V, H34A, Q42E
notes: as for B1
B41: VH SEQ ID NO 522 / VL SEQ ID NO 486 (antibody, IgG4, V domains shown)
VH: B1 VH
VL: B1 VL with I29V, T51A, A84G
notes: as for B1
B42: VH SEQ ID NO 530 / VL SEQ ID NO 406 (antibody, IgG4, V domains shown)
VH: B1 VH with P111Y
VL: B1 VL with I29V, H34A, T51A, Q100A
notes: as for B1
B43: VH SEQ ID NO 522 / VL SEQ ID NO 438 (antibody, IgG4, V domains shown)
VH: B1 VH
VL: B1 VL with I29V, H34A, T51A, F83V
notes: as for B1

target: T1, recombinant human activated Factor VII …; assay: BLI (Fortebio)
Procedure: All steps were performed in running buffer (20 mM HEPES buffer (pH 7.4), 150 mM NaCl, 5 mM CaCl2, 0.03% Tween 20, 1 mg/ml IgG-free BSA) at […] Antibodies were captured on anti-human tips (AHC, Fortebio) for 3 min at a concentration of 10 ug/ml. This was followed by a 3 min incubation to establish a baseline. Following this, association was monitored for 3 min using four different concentrations of VIIa (25 nm, 50 nM, 100 nM, and 200 nM), followed by a 3 mi dissociation. Sensorgrams were analysed using Fortebio data analysis software.

Kd	Binder
1.3 nM	B1
1 nM	B2
14 nM	B3
110 nM	B4
12 nM	B5
1 nM	B6
4.5 nM	B7
26 nM	B8
1.1 nM	B9
1.1 nM	B10
7.1 nM	B11
1.2 nM	B12
1.7 nM	B13
0.96 nM	B14
7.9 nM	B15
1.4 nM	B16
1.2 nM	B17
4.6 nM	B18
1 nM	B19
15 nM	B20
3.2 nM	B21
31 nM	B22

Kd	Binder
14 nM	B23
4.2 nM	B24
1.6 nM	B25
2.5 nM	B26
4.1 nM	B27
170 nM	B28
0.96 nM	B29
1.3 nM	B30
1.2 nM	B31
1.4 nM	B32
17 nM	B33
1 nM	B34
1.2 nM	B35
0.99 nM	B36
1.1 nM	B37
4.9 nM	B38
0.96 nM	B39
320 nM	B40
1.5 nM	B41
4.3 nM	B42
57 nM	B43
